Measurements taken from KR20170021349A, “다양한 질병의 치료를 위한 jnk 신호 전달 경로의 세포 투과성 펩타이드 억제자의 새로운 용도” (자이겐 인플라메이션 리미티드, priority 2014, dated 2017).
Values joined by “and” are separate entries in the source; they are usually repeats but may differ in a detail not shown here. Identical values can stand only once. Like-named read-outs stand apart in the source and are kept apart here.

Assays:
[1] = test system: Varicella Zoster Virus (VZV); experiment: VZV-BAC-Luc replication (luciferase) in HFFs; assay type: cell-based; details: 24 h
Wistar rats = experiment: Renal ischemia/reperfusion, 40 min clamping; assay type: in vivo, rat; details: 2 mg/kg i.v. 1 h after clamping; 24 h
hAPP Tg mice = experiment: hAPP transgenic mouse model of Alzheimer's disease; assay type: in vivo
[2] = test system: Varicella Zoster Virus (VZV); experiment: Plaque reduction assay against VZV in HFFs; assay type: cell-based; details: for VZV spread (pfu) ± SD: 24 h
[3] = test system: female Sprague-Dawley rats; experiment: Cyclophosphamide (CYP)-induced acute cystitis, intravesical treatment; assay type: in vivo, rat; details: 24 h after CYP
[4] = Ocular MTD study, subconjunctival; assay type: in vivo, rabbit
human islets = experiment: Human islets, 24 h hypoxia; assay type: cell-based; details: 100 μM
[5] = test system: HCT 116 tumours in SCID mice; experiment: Orthotopic HCT 116 human colon tumour; assay type: in vivo, mouse
[6] = test system: primary cortical neurons of PKR-/- mice; experiment: Aβ42-induced stress/apoptosis in PKR-/- cortical neurons; assay type: cell-based, mouse
[7] = Ocular MTD study, subconjunctival; assay type: in vivo, rat
Sprague-Dawley rats = experiment: STZ diabetic nephropathy model, chronic administration; assay type: in vivo, rat; details: 1, 2, 4 mg/kg i.v. weekly, 9 weeks
[8] = Stability of stock and diluted solutions; assay type: physicochemical
murine macrophages = experiment: LPS-induced cytokine release in primary cells; assay type: cell-based, mouse; details: Fig. 28 A-C, non-toxic concentrations
[9] = Immunostaining of liver 24 h after 1 mg/kg i.v.; assay type: in vivo, rat; details: Fig. 26
[10] = test system: PC-3 tumours in Balb/c nude mice; experiment: Subcutaneous PC-3 human prostate tumour; assay type: in vivo, mouse; details: 0.1 and 1 mg/kg/inj Q4Dx4, dose-dependent, more marked at 1 mg/kg
Brown Norway rats = experiment: STZ diabetic retinopathy prevention, intravitreal, ERG; assay type: in vivo, rat
[11] = test system: Hep G2 tumours in SWISS nude mice; experiment: Orthotopic Hep G2 human liver carcinoma, 1 mg/kg; assay type: in vivo, mouse
THP-1 cells = experiment: LPS-induced cytokine release; assay type: cell-based; details: Fig. 27 A-C
[12] = dual PKR and JNK inhibition, 10 μM

## NH2-DQSRPVQPFLNLTTPRKPRPPRRRQRRKKRG-COOH (H-DQSRPVQPFLNLTTPRKPRPPRRRQRRKKRG-OH; also: D-amino acids (positions not given here)) [XG-102]
[1]
  lowest tested concentration preventing VZV replication: 0.25 µM
Wistar rats
  serum creatinine vs untreated ischemic rats: 보다 낮은 혈청 크레아티닌을 보였다
hAPP Tg mice; 0.1 mg/kg every 2 wk or 10 mg/kg every 3 wk s.c., 4 months
  spatial learning in Morris Water Maze: 크게 영향을 받지 않았다
hAPP Tg mice; 0.1 mg/kg, p<0.05 vs vehicle
  brain Aβ1-42 level, Triton X-100 fraction: 현저한 감소를 나타내었다
hAPP Tg mice; 10 mg/kg vs vehicle
  cortical 6E10 IR plaque load: 비히클에 비해 증가하였으나
hAPP Tg mice; ELISA, 4 fractions
  brain homogenate Aβ1-40 levels: 영향을 미치지 않았다
hAPP Tg mice; p<0.01 at 10 mg/kg, <0.05 at 0.1 mg/kg
  CSF Aβ1-40 and Aβ1-42 levels: 현저하게 감소되었다
hAPP Tg mice; p<0.05 at 10 mg/kg, p<0.01 at 0.1 mg/kg
  number and area % of hippocampal ThioflavinS-positive plaques: 음성적인 투여량 의존적 감소를 유도함
[2]; 0.5 μM
  VZV spread (pfu) ± SD: 260 ± 53 pfu
[2]; 1.0 μM
  VZV spread (pfu) ± SD: 212 ± 48 pfu
[2]; 2.0 μM
  VZV spread (pfu) ± SD: 312 ± 79 pfu
[2]; interpolated from graph, read-out: EC50 (50% reduction of VZV yield)
  EC50: ~300 nM
[3]; 50 mg/mL i.ves.
  AUC 1-8 g (allodynia) vs vehicle: 현저하게 감소되었다
  AUC 8-60 g (hyperalgesia) vs vehicle: 감소되었다
  haemorrhage score: 통계적으로 현저한 것에 이르지는 않았다
  nociceptive scores vs vehicle: 현저하게 감소시켰다
  urinary bladder wall thickness: 현저하게 감소되었다
[3]; 50 mg/mL, 500 μL i.ves.
  nociceptive threshold vs vehicle: 현저하게 증가하였다
[4]
  NOAEL: ~600 µg
Human islets
  hypoxia-induced islet apoptosis: 세포 자멸을 감소시키는
Human islets; normoxia and hypoxia
  islet necrosis: 괴사를 감소시키는
[5]; 0.1 mg/kg PO
  mice with more than 1 liver metastasis: 25%
[5]; 0.1 mg/kg/adm PO
  mean body weight change at D-2: 7.1±4.6%
[5]; 1 mg/kg PO
  number of mice without liver metastasis: 가장 높았으며
[5]; 1 mg/kg PO, vehicle 40%
  mice with more than 1 liver metastasis: 12.5%
[5]; 1 mg/kg SC
  mice with more than 1 liver metastasis: 25%
[5]; PO/SC 0.1 and 1 mg/kg Q1Dx14, vehicle 33%, group order not given
  mortality D0-D9 (surgical complications) in the four treated groups, as listed: 40% and 34% and 47%
[5]; Q1Dx14
  tolerance of treatment: 내약(tolerated)되었음
[6]; [12]
  decrease of PARP expression level vs treated WT neurons: 93%
  decrease of caspase 3 activity vs treated WT neurons: 87%
  decrease of cleaved caspase 3 vs treated WT neurons: 83%
[6]; peptide pre-treatment (XG-102 10 μM), 2 μM Aβ42
  change of JNK activation: -35%
[6]; peptide pre-treatment, 2 μM Aβ42
  c-Jun activation: 변화시키지 않았다
[7]
  NOAEL: ~20 µg
Sprague-Dawley rats
  body weight vs vehicle-treated STZ rats: 차이를 나타내지 않았다
[8]; 2-4°C
  stability of diluted formulations for animal dosing: 24 시간
[8]; about -80°C
  stability of stock solution (1 mM): 3 개월
  stability of stock solution (10 mM in water): ≥ 100 일
[8]; room temperature
  stability of diluted formulations for animal dosing: 24 시간
[8]; room temperature, 10 μg/ml - 50 mg/ml
  stability in saline: 8 시간
Murine macrophages
  LPS-induced TNFa, IL-6, Rantes release: 사이토카인 방출을 억제한다
[9]
  accumulation in liver, especially Kupffer cells: 명백한 축적
[10]
  mean tumour volume over time: 종양 부피의 감소
Brown Norway rats; 0.2 μg/eye IVT d1,8,15, day 6
  OP#1 scotopic single flash 0dB amplitude: 49 μV
Brown Norway rats; 0.2 μg/eye, day 6
  OP#2 scotopic single flash 0dB amplitude: 98 μV
  OP#3 scotopic single flash 0dB amplitude: 219 μV
  OP#4 scotopic single flash 0dB amplitude: 147 μV
  photopic 1Hz flicker A-wave amplitude: -3 μV
  photopic 1Hz flicker B-wave amplitude: 63 μV
  photopic 29Hz flicker B-wave amplitude: 9 μV
  scotopic single flash 0dB A-wave amplitude: -209 μV
  scotopic single flash 0dB B-wave amplitude: 421 μV
  scotopic single flash -10dB A-wave amplitude: -151 μV
  scotopic single flash -30dB B-wave amplitude: 269 μV
Brown Norway rats; 0.2 μg/eye, day 13
  OP#1 scotopic single flash 0dB amplitude: 37 μV
  OP#2 scotopic single flash 0dB amplitude: 63 μV
  OP#3 scotopic single flash 0dB amplitude: 165 μV
  OP#4 scotopic single flash 0dB amplitude: 129 μV
  photopic 1Hz flicker A-wave amplitude: -4 μV
  photopic 1Hz flicker B-wave amplitude: 71 μV
  photopic 29Hz flicker B-wave amplitude: 14 μV
  scotopic single flash 0dB A-wave amplitude: -203 μV
  scotopic single flash 0dB B-wave amplitude: 442 μV
  scotopic single flash -10dB A-wave amplitude: -128 μV
  scotopic single flash -30dB B-wave amplitude: 270 μV
Brown Norway rats; 0.2 μg/eye, day 20
  OP#1 scotopic single flash 0dB amplitude: 36 μV
  OP#2 scotopic single flash 0dB amplitude: 70 μV
  OP#3 scotopic single flash 0dB amplitude: 164 μV
  OP#4 scotopic single flash 0dB amplitude: 116 μV
  photopic 1Hz flicker A-wave amplitude: -2 μV
  photopic 1Hz flicker B-wave amplitude: 70 μV
  photopic 29Hz flicker B-wave amplitude: 10 μV
  scotopic single flash 0dB A-wave amplitude: -198 μV
  scotopic single flash 0dB B-wave amplitude: 433 μV
  scotopic single flash -10dB A-wave amplitude: -129 μV
  scotopic single flash -30dB B-wave amplitude: 240 μV
Brown Norway rats; 2 μg/eye IVT d1,8,15, day 6
  OP#1 scotopic single flash 0dB amplitude: 40 μV
Brown Norway rats; 2 μg/eye, day 6
  OP#2 scotopic single flash 0dB amplitude: 93 μV
  OP#3 scotopic single flash 0dB amplitude: 239 μV
  OP#4 scotopic single flash 0dB amplitude: 182 μV
  photopic 1Hz flicker A-wave amplitude: -3 μV
  photopic 1Hz flicker B-wave amplitude: 69 μV
  photopic 29Hz flicker B-wave amplitude: 11 μV
  scotopic single flash 0dB A-wave amplitude: -205 μV
  scotopic single flash 0dB B-wave amplitude: 383 μV
  scotopic single flash -10dB A-wave amplitude: -124 μV
  scotopic single flash -30dB B-wave amplitude: 270 μV
Brown Norway rats; 2 μg/eye, day 13
  OP#1 scotopic single flash 0dB amplitude: 33 μV
  OP#2 scotopic single flash 0dB amplitude: 92 μV
  OP#3 scotopic single flash 0dB amplitude: 219 μV
  OP#4 scotopic single flash 0dB amplitude: 160 μV
  photopic 1Hz flicker A-wave amplitude: -6 μV
  photopic 1Hz flicker B-wave amplitude: 91 μV
  photopic 29Hz flicker B-wave amplitude: 17 μV
  scotopic single flash 0dB A-wave amplitude: -261 μV
  scotopic single flash 0dB B-wave amplitude: 524 μV
  scotopic single flash -10dB A-wave amplitude: -152 μV
  scotopic single flash -30dB B-wave amplitude: 292 μV
Brown Norway rats; 2 μg/eye, day 20
  OP#1 scotopic single flash 0dB amplitude: 26 μV
  OP#2 scotopic single flash 0dB amplitude: 49 μV
  OP#3 scotopic single flash 0dB amplitude: 137 μV
  OP#4 scotopic single flash 0dB amplitude: 130 μV
  photopic 1Hz flicker A-wave amplitude: -2 μV
  photopic 1Hz flicker B-wave amplitude: 45 μV
  photopic 29Hz flicker B-wave amplitude: 9 μV
  scotopic single flash 0dB A-wave amplitude: -147 μV
  scotopic single flash 0dB B-wave amplitude: 278 μV
  scotopic single flash -10dB A-wave amplitude: -84 μV
  scotopic single flash -30dB B-wave amplitude: 166 μV
Brown Norway rats; 0.2 and 2 μg/eye IVT
  substance-related deaths: XG-102 관련된 사망은 없었다
Brown Norway rats; rat, in vivo
  overall effect on decrease of ERG wave amplitudes: 웨이브 진폭의 감소를 역전시키는 경향이 있다
  vascular leakage on fluorescein angiography: 혈관 누출을 나타내지 않았고
[11]; 1 mg/kg/inj i.v.
  tolerance (body weight): 내약성이 우수함
[11]; 1 mg/kg/inj i.v. [Q4Dx4]x2
  T/C: 120%
[11]; 1 mg/kg/inj i.v. [Q4Dx4]x2, vehicle 102
  mean survival time (as headed): 123 일
[11]; 1 mg/kg/inj i.v. [Q4Dx4]x2 from D10, D41, vehicle 102 ± 8
  median survival time ± SD (as headed): 111 ± 14 days
THP-1 cells
  LPS-induced TNFa, IL-6, MCP-1 release: 사이토카인 방출을 억제한다
